Results taken from the supplement of paper PMC7125110.
± gives the standard error. For some assays here: Fewer inactive variants are shown than the library holds.

B1: glmS ribozyme (parent)
chain: AUAAAAGCGCCAGAACUACAGAAAUGUAGUUGACGAGGAGGAGGUUUAUCGAAUUUUCGGCGGAUGCCUCCAAA

Experiments:
Details in all cases: with glucosamine-6-phosphate
glucosamine-6-phosphate [1] = variants of: B1; test: kcat; higher = faster cleavage; RNA array
How it was run: (§1)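 Glucosamine-6-phosphate (40 μM to 10 mM) in HEPES/KCl/Mg(OAc)2 buffer was flowed over sequenced MiSeq chips, and tiles were imaged over ~14 h. Barcoded ribozyme variants there had been transcribed in situ by E. coli RNA polymerase and were tracked through a hybridised Cy3 probe at 37 °C. One- or two-exponential decay fits to per-tile medians, normalised to baseline and to non-cleaving reference variants, gave kobs. kcat and KM came from weighted Michaelis–Menten fits across concentrations.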

glucosamine-6-phosphate [2] = variants of: B1; test: KM; higher = weaker cofactor use; RNA array
How it was run: as §1

glucosamine-6-phosphate [3] = variants of: B1; test: self-cleavage kobs at 640 uM GlcN6P; higher = faster cleavage; RNA array
How it was run: as §1

glucosamine-6-phosphate [4] = variants of: B1; test: self-cleavage kobs at 2500 uM GlcN6P; higher = faster cleavage; RNA array
How it was run: as §1

glucosamine-6-phosphate [5] = variants of: B1; test: self-cleavage kobs at 10000 uM GlcN6P; higher = faster cleavage; RNA array
How it was run: as §1

glucosamine-6-phosphate [6] = variants of: B1; test: self-cleavage kobs at 40 uM GlcN6P; higher = faster cleavage; RNA array
How it was run: as §1

glucosamine-6-phosphate [7] = variants of: B1; test: self-cleavage kobs at 160 uM GlcN6P; higher = faster cleavage; RNA array
How it was run: as §1

Row | Variant | kcat (glucosamine-6-phosphate [1]) [s⁻¹] | KM (glucosamine-6-phosphate [2]) [µM] | self-cleavage kobs at 640 uM GlcN6P (glucosamine-6-phosphate [3]) [s⁻¹] | self-cleavage kobs at 2500 uM GlcN6P (glucosamine-6-phosphate [4]) [s⁻¹] | self-cleavage kobs at 10000 uM GlcN6P (glucosamine-6-phosphate [5]) [s⁻¹] | self-cleavage kobs at 40 uM GlcN6P (glucosamine-6-phosphate [6]) [s⁻¹] | self-cleavage kobs at 160 uM GlcN6P (glucosamine-6-phosphate [7]) [s⁻¹]
1 | U30C G32C | 0.000399 ± 5.8e-05 | 3500 ± 1100 | 5.99e-05 ± 1.9e-05 | 0.000157 ± 3e-05 | 0.0003 ± 3.4e-05 | – | –
2 | A14C U65A | 0.000588 ± 2.2e-05 | 3100 ± 210 | 0.000103 ± 1.5e-05 | 0.000248 ± 5e-05 | 0.000453 ± 5.4e-05 | – | –
3 | G13A U31A G32A C50G C67G | 4.8e-05 ± 1.5e-05 | – | 4.97e-05 ± 2.2e-05 | 5.25e-05 ± 1.8e-05 | – | – | –
4 | C61A C68G | 1.96e-05 ± 3.4e-06 | – | – | – | – | – | –
5 | U55C | 0.0394 ± 0.0032 | 2000 ± 200 | 0.0091 ± 0.00035 | 0.0201 ± 0.001 | 0.0349 ± 0.0014 | 0.000797 ± 1.8e-05 | 0.0027 ± 0.00018
6 | A14G C58U C61U | 1.33e-05 ± 2.7e-06 | – | – | – | – | < 1e-05 | –
7 | A12G C70A | 0.000118 ± 8.6e-06 | 1110 ± 270 | 4.35e-05 ± 7.9e-06 | 7.34e-05 ± 1.3e-05 | 0.000108 ± 9.4e-06 | – | –
8 | U55G U56G | 0.0156 ± 0.0072 | – | 0.00307 ± 0.00039 | 0.00561 ± 0.00078 | 0.0215 ± 0.0038 | 0.000205 ± 3e-05 | 0.000797 ± 0.00014
9 | G40A C70A | 0.000241 ± 1.6e-05 | 350 ± 60 | 0.000163 ± 2.5e-05 | 0.000235 ± 4.9e-05 | 0.000217 ± 3.8e-05 | 2.59e-05 ± 1.2e-05 | 6.86e-05 ± 1.9e-05
10 | G51U G60C C68A | 2.85e-05 ± 8.6e-06 | – | – | – | – | – | –
11 | G9A U45A | 1.6e-05 ± 1.8e-06 | – | – | – | – | – | < 1e-05
12 | A15C C68G | 2.69e-05 ± 6.5e-06 | – | – | 3.22e-05 ± 9e-06 | – | – | –
13 | G13C G29U | 0.000169 ± 1.6e-05 | 3700 ± 710 | 3.22e-05 ± 1.3e-05 | 6.58e-05 ± 8.4e-06 | 0.000125 ± 1.6e-05 | – | –
14 | A15G G32C C67G | 1.35e-05 ± 1.1e-06 | – | – | – | – | – | –
15 | A14G G41U | 0.00179 ± 0.00049 | 206 ± 99 | 0.00124 ± 0.00021 | 0.00232 ± 0.00045 | – | 0.00033 ± 4.5e-05 | 0.000642 ± 0.00012
16 | A15C U56A | 0.00477 ± 0.0013 | 1930 ± 760 | 0.00107 ± 0.00016 | 0.00218 ± 0.0005 | 0.00482 ± 0.0008 | 0.000113 ± 1.7e-05 | –
17 | A14U G40A | 0.0018 ± 0.0003 | 1500 ± 450 | 0.000643 ± 0.00013 | – | 0.00161 ± 0.00021 | 4.43e-05 ± 1e-05 | –
18 | U45A A48C | 0.000559 ± 7.1e-05 | 2130 ± 560 | 0.000131 ± 2.3e-05 | 0.000382 ± 8.1e-05 | 0.000445 ± 5.6e-05 | – | –
